Usually Kd stands for the equilibrium constant for the complex coming apart. Read a low Kd as higher affinity.

“And” between values parts separate entries of the source, which are not always exact repeats. Equal entries are not always repeated. Where two headings read alike, the source gives them in different places. Primed or numbered codes have the meaning given here. Where no end group is shown, it is not given here. [ ]: non-standard residue; d: D form. The star is where a group is joined. PEG2′ = short PEG linker placed between the N-terminal FITC label and the peptide; FITC = O=C1OC2(c3ccc(O)cc3Oc3cc(O)ccc32)c2ccc(NC(=S)*)cc21; pT = C[C@@H](OP(=O)(O)O)[C@H](N)C(=O)O; pS = N[C@@H](COP(=O)(O)O)C(=O)O

The source of these data is PMC7939381 (2020).

First the molecules themselves.
T1: 14-3-3γ, full length, N-terminally His6-tagged (human, UniProt P61981 1-247)
T1 chain: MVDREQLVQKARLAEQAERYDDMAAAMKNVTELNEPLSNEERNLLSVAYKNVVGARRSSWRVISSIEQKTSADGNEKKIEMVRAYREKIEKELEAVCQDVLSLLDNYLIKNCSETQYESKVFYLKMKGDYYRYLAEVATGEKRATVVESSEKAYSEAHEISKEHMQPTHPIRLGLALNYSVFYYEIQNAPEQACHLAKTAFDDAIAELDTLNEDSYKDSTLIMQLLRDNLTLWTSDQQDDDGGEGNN

T2: 14-3-3θ, full length, N-terminally His6-tagged (human, UniProt P27348 1-245)
T2 chain: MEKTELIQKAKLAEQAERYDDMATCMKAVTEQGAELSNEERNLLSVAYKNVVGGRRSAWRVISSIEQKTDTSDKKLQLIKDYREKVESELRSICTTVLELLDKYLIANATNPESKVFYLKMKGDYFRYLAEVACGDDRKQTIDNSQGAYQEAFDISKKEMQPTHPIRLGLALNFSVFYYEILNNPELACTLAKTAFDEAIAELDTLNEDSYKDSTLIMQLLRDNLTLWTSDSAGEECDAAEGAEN

T3: 14-3-3ε, full length, N-terminally His6-tagged (human, UniProt P62258 1-255)
T3 chain: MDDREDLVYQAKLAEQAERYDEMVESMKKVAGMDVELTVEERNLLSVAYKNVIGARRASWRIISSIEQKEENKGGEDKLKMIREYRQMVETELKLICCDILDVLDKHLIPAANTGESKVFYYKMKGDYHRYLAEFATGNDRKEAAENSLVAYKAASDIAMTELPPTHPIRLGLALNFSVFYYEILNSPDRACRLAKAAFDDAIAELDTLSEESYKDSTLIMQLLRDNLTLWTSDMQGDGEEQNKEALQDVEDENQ

T4: 14-3-3ζ, full length, N-terminally His6-tagged (human, UniProt P63104 1-245)
T4 chain: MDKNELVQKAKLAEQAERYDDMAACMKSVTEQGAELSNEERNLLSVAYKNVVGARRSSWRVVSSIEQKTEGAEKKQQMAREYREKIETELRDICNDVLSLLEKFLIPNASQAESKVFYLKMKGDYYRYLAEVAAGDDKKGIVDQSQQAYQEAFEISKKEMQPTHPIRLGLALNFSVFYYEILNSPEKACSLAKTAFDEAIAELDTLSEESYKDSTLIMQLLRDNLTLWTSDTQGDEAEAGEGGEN

B1: fluorescently labeled peptide 7, APN 36–73 pSer43 (peptide)
peptide: EKNKNAN[pS]SPVASTTPSASATTNPASATTLDQSKAWNR
modifications: not fully specified (N-terminus); also: FITC via PEG2 linker, site not given here
B2: fluorescently labeled peptide 11, APN 36–73 pSer43 pThr63 (peptide)
peptide: EKNKNAN[pS]SPVASTTPSASATTNPASA[pT]TLDQSKAWNR
modifications: not fully specified (N-terminus); also: FITC via PEG2 linker, site not given here
B3: 14-3-3η, full length, N-terminally His6-tagged (natural protein)
chain: MGDREQLLQRARLAEQAERYDDMASAMKAVTELNEPLSNEDRNLLSVAYKNVVGARRSSWRVISSIEQKTMADGNEKKLEKVKAYREKIEKELETVCNDVLSLLDKFLIKNCNDFQYESKVFYLKMKGDYYRYLAEVASGEKKNSVVEASEAAYKEAFEISKEQMQPTHPIRLGLALNFSVFYYEIQNAPEQACLLAKQAFDDAIAELDTLNEDSYKDSTLIMQLLRDNLTLWTSDQQDEEAGEGN
B4: 14-3-3β/α, full length, N-terminally His6-tagged (natural protein)
chain: MTMDKSELVQKAKLAEQAERYDDMAAAMKAVTEQGHELSNEERNLLSVAYKNVVGARRSSWRVISSIEQKTERNEKKQQMGKEYREKIEAELQDICNDVLELLDKYLIPNATQPESKVFYLKMKGDYFRYLSEVASGDNKQTTVSNSQQAYQEAFEISKKEMQPTHPIRLGLALNFSVFYYEILNSPEKACSLAKTAFDEAIAELDTLNEESYKDSTLIMQLLRDNLTLWTSENQGDEGDAGEGEN
B5: 14-3-3σ, full length, N-terminally His6-tagged (natural protein)
chain: MERASLIQKAKLAEQAERYEDMAAFMKGAVEKGEELSCEERNLLSVAYKNVVGGQRAAWRVLSSIEQKSNEEGSEEKGPEVREYREKVETELQGVCDTVLGLLDSHLIKEAGDAESRVFYLKMKGDYYRYLAEVATGDDKKRIIDSARSAYQEAMDISKKEMPPTNPIRLGLALNFSVFHYEIANSPEEAISLAKTTFDEAMADLHTLSEDSYKDSTLIMQLLRDNLTLWTADNAGEEGGEAPQEPQS

The target of assay [1] is B5. Nature of the assay: FP.
Assay [2] concerns the target B4. The assay can be described thus: FP.
For assay [3], the target named is B5. Nature of the assay: FP.
Assay [4] concerns the target T1, 14-3-3γ, full length, N-terminally …. The assay can be described thus: FP.
The target in assay [5] is B3. The assay can be described thus: FP.
The target of assay [6] is T2, 14-3-3θ, full length, N-terminally …. Nature of the assay: FP.
Assay [7] addresses T3, 14-3-3ε, full length, N-terminally …. The assay can be described thus: FP.
For assay [8], the target named is B4. Nature of the assay: FP.
Assay [9] has as its target T4, 14-3-3ζ, full length, N-terminally …. Nature of the assay: FP.
For assay [10], the target named is B3. The assay can be described thus: FP.
The target of assay [11] is B3. The assay can be described thus: FP.
Assay [12] has as its target peptide 13. The assay can be described thus: FP.
Assay [13] concerns the target peptide 13. Nature of the assay: FP. The source holds these as a separate data set.
Assay [14] deals with B4. The assay can be described thus: FP.
Assay [15] concerns the target B3. Nature of the assay: ITC; replicate B. For orientation: In ITC the heat of successive injections is recorded.
The target in assay [16] is B3. Nature of the assay: ITC; replicate A.
Assay [17] has as its target B3. Nature of the assay: ITC.

B1: the dissociation constant Kd was > 167 µM in [1] and 60 µM in [2].
B2: the dissociation constant (Kd) in [1] is 1.8 µM; in assay [2], 0.11 µM.
For the molecule {FITC-PEG2′}-NKNAN[pS]SPV [FITC-labeled peptide 1, APN 38–46 pSer43], the Kd turned out to be 3.5 µM in assay [1]; 0.71 µM in assay [2]; 3.9 µM in assay [3]; 1.16 µM in assay [4]; 0.21 µM in assay [5]; 2 µM in assay [6]. In addition, the Kd amounted to 1.1 µM in [7], 0.7 µM in assay [8] and 1.2 µM in assay [9].
Turning to {FITC-PEG2′}-EKNKNAN[pS]SPVASTTPSASATTNPASATTLDQSKAWNR (also: second phosphorylated Ser/Thr, site not given here) [fluorescently labeled peptide 8, APN 36–73, bis-phosphorylated], the Kd is > 167 µM in assay [1], 18 µM in assay [10], 32 µM in assay [2] and 18 µM in [11].
In the case of B3, the Kd in assay [12] and in [13] was > 83 µM throughout.
Regarding {FITC-PEG2′}-EKNKNAN[pS]SPVASTTPSASATTNPASATTLDQSKAWNR (also: second phosphorylation within Ser61–Thr64, site not given here) [fluorescently labeled peptide 10, APN 36–73, bis-phosphorylated], the Kd was determined as 6.6 µM in assay [1], 0.42 µM in [10], 0.88 µM in assay [2] and 0.42 µM in assay [11].
As for PASATTLDQ (also: one phosphorylated Ser/Thr within Ser61–Thr64) [peptide 16, monophosphorylated APN 9-mer (noncanonical site of peptide 12)], the Kd in [11] was > 167 µM; in assay [14], > 333 µM.
For B4, the Kd in assay [12] is > 167 µM.
On to B5, for which the Kd in [12] is > 167 µM.
For TTNPASATT (also: one phosphorylated Ser/Thr within Ser61–Thr64) [peptide 14, monophosphorylated APN 9-mer (noncanonical site of peptide 10)], the Kd in assay [11] was 70 µM; in assay [14] it was > 167 µM.
NKNAN[pS]SPV [peptide 1, APN 38–46 pSer43, as used in ITC]: the results for the Kd in assay [15] and in assay [16] were 2.01 µM and 2.48 µM, respectively. Besides, in [17], the Ka is 403000 M⁻¹ and 488000 M⁻¹ and 497000 M⁻¹.
Take {FITC-PEG2′}-EKNKNAN[pS]SPVASTTPSASATTNPASATTLDQSKAWNR (also: second phosphorylation within Ser61–Thr64, site not given here) [fluorescently labeled peptide 12, APN 36–73, bis-phosphorylated]: the Kd is 4.1 µM in assay [1], 0.18 µM in assay [10], 0.45 µM in assay [2] and 0.18 µM in [11].
As to {FITC-PEG2′}-EKNKNAN[pS]SPVASTTPSASATTNPASATTLDQSKAWNR (also: second phosphorylated Ser/Thr, site not given here) [fluorescently labeled peptide 9, APN 36–73, bis-phosphorylated], the Kd in [1] is > 167 µM; in [10], 15 µM; in assay [2], 23 µM; in [11], 15 µM.
For NPASA[pT]TLD [peptide 15, monophosphorylated APN 9-mer pThr63 (site 2)], in assay [14], the Kd turned out to be 45 µM.
